# T1: Human PTK7/CCK4 Protein, His Tag, Acro Biosystems PT7-H52H3 (human, UniProt Q13308 31-704)
# T1 construct: bought protein; also called Human PTK7 Protein, His Tag, Acro Biosystems; not shown: His tag
# T1 sequence: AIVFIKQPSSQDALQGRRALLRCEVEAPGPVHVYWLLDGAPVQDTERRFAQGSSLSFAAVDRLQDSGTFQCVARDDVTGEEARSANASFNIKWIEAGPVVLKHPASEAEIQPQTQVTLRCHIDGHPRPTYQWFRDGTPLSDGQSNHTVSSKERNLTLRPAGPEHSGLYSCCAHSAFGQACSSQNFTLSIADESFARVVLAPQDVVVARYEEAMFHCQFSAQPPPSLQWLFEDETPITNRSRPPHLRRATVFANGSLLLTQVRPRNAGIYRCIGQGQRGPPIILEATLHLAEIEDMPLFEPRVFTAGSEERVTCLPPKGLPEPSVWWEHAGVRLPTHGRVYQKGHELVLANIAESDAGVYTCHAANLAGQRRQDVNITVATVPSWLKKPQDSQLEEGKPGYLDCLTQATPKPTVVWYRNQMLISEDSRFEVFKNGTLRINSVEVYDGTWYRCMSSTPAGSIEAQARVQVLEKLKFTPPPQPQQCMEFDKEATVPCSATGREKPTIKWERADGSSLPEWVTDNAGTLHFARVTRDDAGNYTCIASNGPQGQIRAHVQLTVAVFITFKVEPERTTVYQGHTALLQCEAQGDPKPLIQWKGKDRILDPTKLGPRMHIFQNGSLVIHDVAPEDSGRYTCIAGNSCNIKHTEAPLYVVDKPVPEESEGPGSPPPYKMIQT
# T2: Human PTK7 Protein, His Tag, Acro Biosystems (human, UniProt Q13308 31-704)
# T2 construct: Bought recombinant protein; also called CCK4; not shown: His tag
# T2 sequence: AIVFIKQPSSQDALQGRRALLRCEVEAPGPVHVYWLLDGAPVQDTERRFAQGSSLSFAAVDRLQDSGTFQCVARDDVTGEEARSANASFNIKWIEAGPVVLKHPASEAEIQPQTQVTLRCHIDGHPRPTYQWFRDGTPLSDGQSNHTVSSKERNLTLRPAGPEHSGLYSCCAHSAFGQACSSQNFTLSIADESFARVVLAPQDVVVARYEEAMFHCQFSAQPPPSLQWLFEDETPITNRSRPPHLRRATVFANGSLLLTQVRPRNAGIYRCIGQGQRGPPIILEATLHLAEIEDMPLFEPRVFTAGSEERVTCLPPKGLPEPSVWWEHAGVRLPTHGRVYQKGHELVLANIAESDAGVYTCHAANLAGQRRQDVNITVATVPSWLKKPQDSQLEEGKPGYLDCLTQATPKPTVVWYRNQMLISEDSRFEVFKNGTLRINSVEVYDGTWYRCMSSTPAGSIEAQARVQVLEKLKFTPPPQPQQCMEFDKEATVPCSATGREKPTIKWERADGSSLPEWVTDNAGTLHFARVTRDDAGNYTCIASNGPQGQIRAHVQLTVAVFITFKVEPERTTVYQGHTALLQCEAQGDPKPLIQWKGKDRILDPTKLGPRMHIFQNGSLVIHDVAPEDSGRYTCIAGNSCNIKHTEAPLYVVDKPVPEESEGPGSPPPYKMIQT
# Target: T1, Human PTK7/CCK4 Protein, His Tag, Acro …
# Test: BLI, antibody on anti-human Fc sensor
row,binding result,Binder
1,no binding (tested: 50 nM PTK7),"MYT6162 (antibody, V domains shown, IgG) VH: QVQLVQSGPEVKKPGASVKVSCKASGYTFTDYHVHWVRQAPGKRLEWIGVISTYNDYTYNNQDFKGRVTMTRDTSASTAYMELSRLRSEDTAVYYCARGNSYFYALDYWGQGTSVTVSS VL: EIVLTQSPATLSLSPGERATLSCRASESVDSYGKSFMHWYQQKPGQAPRLLIYRASNLESGIPARFSGSGSGTDFTLTISSLEPEDFAVYYCQQSNEDPWTFGGGTKLEIK"
2,no binding (tested: 50 nM PTK7),"MYT6184 (antibody, V domains shown, IgG) VH: QVQLVQSGPEVKKPGASVKVSCKASGYTFTDYAVHWVRQAPGKRLEWIGVISTYNDYTYNNQDFKGRVTMTRDTSASTAYMELSRLRSEDTAVYYCARHNSYFYALDYWGQGTSVTVSS VL: EIVLTQSPATLSLSPGERATLSCRASESVDSYGKSFMHWYQQKPGQAPRLLIYRASNLESGIPARFSGSGSGTDFTLTISSLEPEDFAVYYCQQSNEDPWTFGGGTKLEIK"
3,no binding (tested: 50 nM PTK7),"MYT6165 (antibody, V domains shown, IgG) VH: QVQLVQSGPEVKKPGASVKVSCKASGYTFTDYAVHWVRQAPGKRLEWIGHISTYNDYTYNNQDFKGRVTMTRDTSASTAYMELSRLRSEDTAVYYCARGNSYFYALDYWGQGTSVTVSS VL: EIVLTQSPATLSLSPGERATLSCRASESVDSYGKSFMHWYQQKPGQAPRLLIYRASNLESGIPARFSGSGSGTDFTLTISSLEPEDFAVYYCQQSNEDPWTFGGGTKLEIK"

# Target: T2, Human PTK7 Protein, His Tag, Acro …
# Test: BLI, anti-human Fc capture, 50 nM PTK7; 1 = pH dependent binding relative to parent
row,binding result,Binder
1,binds,"MYT11151 (antibody, V domains shown, MYT9412 LC variant) VH: EVQLVESGGGLVQPGGSLRLSCTASGFSLSTYAMSWVRQAPGKGLEWVGMIYINDNTYYASWAKGRFTISRDTSKNTVYLQMNSLRAEDTAVYFCARDIGISYYIGVSLWGQGTLVTVSS VL: EIVMTQSPSTLSASVGDRVIITCQASQSIHTRLSWYQQKPGKAPKLLIYGASKLATGVPSRFSGSGSGAEFTLTISSLQPDDFATYYCLGEYSYTTTDGIAFGQGTKLTVL"
2,binds,"MYT11178 (antibody, V domains shown, MYT9412 LC alanine variant) VH: EVQLVESGGGLVQPGGSLRLSCTASGFSLSTYAMSWVRQAPGKGLEWVGMIYINDNTYYASWAKGRFTISRDTSKNTVYLQMNSLRAEDTAVYFCARDIGISYYIGVSLWGQGTLVTVSS VL: EIVMTQSPSTLSASVGDRVIITCQASQSIGTRLSWYQQKPGKAPKLLIYGASKLATGVPSRFSGSGSGAEFTLTISSLQPDDFATYYCLGEYSYTTTDAIAFGQGTKLTVL"
3,binds,"MYT11136 (antibody, V domains shown, MYT9412 HC variant) VH: EVQLVESGGGLVQPGGSLRLSCTASGFSLSTYAMSWVRQAPGKGLEWVGMIYINDNTYYASWAKGRFTISRDTSKNTVYLQMNSLRAEDTAVYFCARDIGISYHIGVSLWGQGTLVTVSS VL: EIVMTQSPSTLSASVGDRVIITCQASQSIGTRLSWYQQKPGKAPKLLIYGASKLATGVPSRFSGSGSGAEFTLTISSLQPDDFATYYCLGEYSYTTTDGIAFGQGTKLTVL"
4,binds,"MYT11146 (antibody, V domains shown, MYT9412 LC variant) VH: EVQLVESGGGLVQPGGSLRLSCTASGFSLSTYAMSWVRQAPGKGLEWVGMIYINDNTYYASWAKGRFTISRDTSKNTVYLQMNSLRAEDTAVYFCARDIGISYYIGVSLWGQGTLVTVSS VL: EIVMTQSPSTLSASVGDRVIITCQHSQSIGTRLSWYQQKPGKAPKLLIYGASKLATGVPSRFSGSGSGAEFTLTISSLQPDDFATYYCLGEYSYTTTDGIAFGQGTKLTVL"
5,binds,"MYT11172 (antibody, V domains shown, MYT9412 LC variant) VH: EVQLVESGGGLVQPGGSLRLSCTASGFSLSTYAMSWVRQAPGKGLEWVGMIYINDNTYYASWAKGRFTISRDTSKNTVYLQMNSLRAEDTAVYFCARDIGISYYIGVSLWGQGTLVTVSS VL: EIVMTQSPSTLSASVGDRVIITCQASQSIGTRLSWYQQKPGKAPKLLIYGASKLATGVPSRFSGSGSGAEFTLTISSLQPDDFATYYCLGEYSYTTTHGIAFGQGTKLTVL"
6,binds,"MYT11166 (antibody, V domains shown, MYT9412 LC variant) VH: EVQLVESGGGLVQPGGSLRLSCTASGFSLSTYAMSWVRQAPGKGLEWVGMIYINDNTYYASWAKGRFTISRDTSKNTVYLQMNSLRAEDTAVYFCARDIGISYYIGVSLWGQGTLVTVSS VL: EIVMTQSPSTLSASVGDRVIITCQASQSIGTRLSWYQQKPGKAPKLLIYGASKLATGVPSRFSGSGSGAEFTLTISSLQPDDFATYYCLGEHSYTTTDGIAFGQGTKLTVL"
7,binds,"MYT11144 (antibody, V domains shown, MYT9412 HC alanine variant) VH: EVQLVESGGGLVQPGGSLRLSCTASGFSLSTYAMSWVRQAPGKGLEWVGMIYINDNTYYASWAKGRFTISRDTSKNTVYLQMNSLRAEDTAVYFCARAIGISYYIGVSLWGQGTLVTVSS VL: EIVMTQSPSTLSASVGDRVIITCQASQSIGTRLSWYQQKPGKAPKLLIYGASKLATGVPSRFSGSGSGAEFTLTISSLQPDDFATYYCLGEYSYTTTDGIAFGQGTKLTVL"

# The remaining lines, values behind:
row,Binder,binding result
1,"MYT11120 (antibody, V domains shown, MYT9412 HC variant) VH: EVQLVESGGGLVQPGGSLRLSCTASGFSLSTYAMSWVRQAPGKGLEWVGMIYINDNTHYASWAKGRFTISRDTSKNTVYLQMNSLRAEDTAVYFCARDIGISYYIGVSLWGQGTLVTVSS VL: EIVMTQSPSTLSASVGDRVIITCQASQSIGTRLSWYQQKPGKAPKLLIYGASKLATGVPSRFSGSGSGAEFTLTISSLQPDDFATYYCLGEYSYTTTDGIAFGQGTKLTVL",binds
2,"MYT11177 (antibody, V domains shown, MYT9412 LC alanine variant) VH: EVQLVESGGGLVQPGGSLRLSCTASGFSLSTYAMSWVRQAPGKGLEWVGMIYINDNTYYASWAKGRFTISRDTSKNTVYLQMNSLRAEDTAVYFCARDIGISYYIGVSLWGQGTLVTVSS VL: EIVMTQSPSTLSASVGDRVIITCQASQSIGTRLSWYQQKPGKAPKLLIYGASKLATGVPSRFSGSGSGAEFTLTISSLQPDDFATYYCLGEYSYTTTAGIAFGQGTKLTVL",binds
3,"MYT11134 (antibody, V domains shown, MYT9412 HC variant) VH: EVQLVESGGGLVQPGGSLRLSCTASGFSLSTYAMSWVRQAPGKGLEWVGMIYINDNTYYASWAKGRFTISRDTSKNTVYLQMNSLRAEDTAVYFCARDIGIHYYIGVSLWGQGTLVTVSS VL: EIVMTQSPSTLSASVGDRVIITCQASQSIGTRLSWYQQKPGKAPKLLIYGASKLATGVPSRFSGSGSGAEFTLTISSLQPDDFATYYCLGEYSYTTTDGIAFGQGTKLTVL",binds
4,"MYT11152 (antibody, V domains shown, MYT9412 LC variant) VH: EVQLVESGGGLVQPGGSLRLSCTASGFSLSTYAMSWVRQAPGKGLEWVGMIYINDNTYYASWAKGRFTISRDTSKNTVYLQMNSLRAEDTAVYFCARDIGISYYIGVSLWGQGTLVTVSS VL: EIVMTQSPSTLSASVGDRVIITCQASQSIGHRLSWYQQKPGKAPKLLIYGASKLATGVPSRFSGSGSGAEFTLTISSLQPDDFATYYCLGEYSYTTTDGIAFGQGTKLTVL",binds
5,"MYT11137 (antibody, V domains shown, MYT9412 HC variant) VH: EVQLVESGGGLVQPGGSLRLSCTASGFSLSTYAMSWVRQAPGKGLEWVGMIYINDNTYYASWAKGRFTISRDTSKNTVYLQMNSLRAEDTAVYFCARDIGISYYHGVSLWGQGTLVTVSS VL: EIVMTQSPSTLSASVGDRVIITCQASQSIGTRLSWYQQKPGKAPKLLIYGASKLATGVPSRFSGSGSGAEFTLTISSLQPDDFATYYCLGEYSYTTTDGIAFGQGTKLTVL",binds
6,"MYT11163 (antibody, V domains shown, MYT9412 LC variant) VH: EVQLVESGGGLVQPGGSLRLSCTASGFSLSTYAMSWVRQAPGKGLEWVGMIYINDNTYYASWAKGRFTISRDTSKNTVYLQMNSLRAEDTAVYFCARDIGISYYIGVSLWGQGTLVTVSS VL: EIVMTQSPSTLSASVGDRVIITCQASQSIGTRLSWYQQKPGKAPKLLIYGASKLATGVPSRFSGSGSGAEFTLTISSLQPDDFATYYCHGEYSYTTTDGIAFGQGTKLTVL",binds
7,"MYT11150 (antibody, V domains shown, MYT9412 LC variant) VH: EVQLVESGGGLVQPGGSLRLSCTASGFSLSTYAMSWVRQAPGKGLEWVGMIYINDNTYYASWAKGRFTISRDTSKNTVYLQMNSLRAEDTAVYFCARDIGISYYIGVSLWGQGTLVTVSS VL: EIVMTQSPSTLSASVGDRVIITCQASQSHGTRLSWYQQKPGKAPKLLIYGASKLATGVPSRFSGSGSGAEFTLTISSLQPDDFATYYCLGEYSYTTTDGIAFGQGTKLTVL",binds
8,"MYT11153 (antibody, V domains shown, MYT9412 LC variant) VH: EVQLVESGGGLVQPGGSLRLSCTASGFSLSTYAMSWVRQAPGKGLEWVGMIYINDNTYYASWAKGRFTISRDTSKNTVYLQMNSLRAEDTAVYFCARDIGISYYIGVSLWGQGTLVTVSS VL: EIVMTQSPSTLSASVGDRVIITCQASQSIGTHLSWYQQKPGKAPKLLIYGASKLATGVPSRFSGSGSGAEFTLTISSLQPDDFATYYCLGEYSYTTTDGIAFGQGTKLTVL",binds
